The values that follow come from US20040038876A1 (published 2004).

For assay [1], the target named is T1, Shh receptor molecules on C3H10T1/2 cells (UniProt Q61115 1-1434).
T1 sequence (looked up): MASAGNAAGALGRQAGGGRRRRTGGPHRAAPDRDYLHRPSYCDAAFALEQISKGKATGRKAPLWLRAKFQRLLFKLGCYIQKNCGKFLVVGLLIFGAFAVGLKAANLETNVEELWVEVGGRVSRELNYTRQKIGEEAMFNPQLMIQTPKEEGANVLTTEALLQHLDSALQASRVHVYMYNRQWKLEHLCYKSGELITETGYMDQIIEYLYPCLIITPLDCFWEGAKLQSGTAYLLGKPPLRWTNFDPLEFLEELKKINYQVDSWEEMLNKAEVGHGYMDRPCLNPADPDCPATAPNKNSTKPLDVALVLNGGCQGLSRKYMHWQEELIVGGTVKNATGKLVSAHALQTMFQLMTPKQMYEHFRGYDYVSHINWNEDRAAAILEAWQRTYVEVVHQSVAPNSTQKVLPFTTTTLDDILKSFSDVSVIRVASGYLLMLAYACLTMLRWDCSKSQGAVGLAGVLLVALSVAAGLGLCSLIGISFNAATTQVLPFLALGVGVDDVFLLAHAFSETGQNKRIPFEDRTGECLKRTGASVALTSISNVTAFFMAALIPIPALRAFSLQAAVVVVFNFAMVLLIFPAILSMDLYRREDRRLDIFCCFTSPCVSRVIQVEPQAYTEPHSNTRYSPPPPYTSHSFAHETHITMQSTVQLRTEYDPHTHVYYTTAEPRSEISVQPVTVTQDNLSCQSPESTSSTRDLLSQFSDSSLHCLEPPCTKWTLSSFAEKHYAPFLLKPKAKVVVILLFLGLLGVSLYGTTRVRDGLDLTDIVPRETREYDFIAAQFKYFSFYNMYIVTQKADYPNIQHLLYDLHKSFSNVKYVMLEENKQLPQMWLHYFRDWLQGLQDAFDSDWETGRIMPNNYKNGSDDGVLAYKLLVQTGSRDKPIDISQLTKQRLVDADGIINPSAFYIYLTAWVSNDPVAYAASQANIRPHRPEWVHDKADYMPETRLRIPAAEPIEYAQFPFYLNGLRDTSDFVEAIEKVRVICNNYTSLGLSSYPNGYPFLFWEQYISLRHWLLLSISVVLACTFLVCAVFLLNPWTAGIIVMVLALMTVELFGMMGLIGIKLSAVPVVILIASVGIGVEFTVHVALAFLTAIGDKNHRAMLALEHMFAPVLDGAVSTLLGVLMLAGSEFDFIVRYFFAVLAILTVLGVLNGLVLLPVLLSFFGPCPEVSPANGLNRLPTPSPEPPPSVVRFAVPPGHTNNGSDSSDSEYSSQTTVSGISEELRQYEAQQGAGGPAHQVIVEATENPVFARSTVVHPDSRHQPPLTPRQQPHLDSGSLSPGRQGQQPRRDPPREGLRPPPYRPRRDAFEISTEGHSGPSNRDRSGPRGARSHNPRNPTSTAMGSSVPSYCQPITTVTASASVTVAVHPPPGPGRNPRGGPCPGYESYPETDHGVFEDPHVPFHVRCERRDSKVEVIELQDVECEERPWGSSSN
The assay can be described thus: cell-based or functional assay.

For assay [2], the target named is T1, Shh receptor molecules on C3H10T1/2 …. The experiment in a line: cell-based or functional assay. The source holds these as a separate data set.

B1: mutant 25 (Shh C1II/A169C + S133C), Pyrene-modified (ligand)
chain: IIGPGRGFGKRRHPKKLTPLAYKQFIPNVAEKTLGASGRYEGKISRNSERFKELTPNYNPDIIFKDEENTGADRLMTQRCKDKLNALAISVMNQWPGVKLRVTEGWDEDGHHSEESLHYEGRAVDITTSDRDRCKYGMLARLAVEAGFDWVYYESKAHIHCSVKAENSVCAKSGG
modifications: N-(1-pyrenyl) maleimide on thiol of Cys133, Cys169
As to B1, the “Potency (IC50) in C3H10T1/2 assay (alkaline phosphatase induction)” value (from here on “Potency (IC50) in C3H10T1/2 assay”) in assay [1] was 3 µg/mL.

B2: mutant 25 (Shh C1II/A169C + S133C), Napth-modified (ligand)
chain: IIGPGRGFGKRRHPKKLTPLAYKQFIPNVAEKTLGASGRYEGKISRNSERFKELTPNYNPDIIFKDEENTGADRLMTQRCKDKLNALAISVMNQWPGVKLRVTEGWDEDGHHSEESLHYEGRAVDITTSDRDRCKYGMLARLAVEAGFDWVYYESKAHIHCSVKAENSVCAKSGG
modifications: N-(1-naphthyl) maleimide on thiol of Cys133, Cys169
With B2, the “Potency (IC50) in C3H10T1/2 assay” value in assay [1] was 0.6 µg/mL.

B3: mutant 45 (Shh C1II/A169C + G146C), unmodified (ligand)
chain: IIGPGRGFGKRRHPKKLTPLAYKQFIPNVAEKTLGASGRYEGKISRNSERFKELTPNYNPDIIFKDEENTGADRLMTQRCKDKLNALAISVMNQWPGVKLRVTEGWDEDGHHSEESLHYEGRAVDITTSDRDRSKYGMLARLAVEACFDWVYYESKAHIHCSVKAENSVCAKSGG
For the molecule B3, the “IC50 in C3H10T1/2 assay” value in assay [2] amounted to 0.3 µg/mL.

B4: mutant 44 (Shh C1II/A169C + E113C), 5 K PEG (ligand)
chain: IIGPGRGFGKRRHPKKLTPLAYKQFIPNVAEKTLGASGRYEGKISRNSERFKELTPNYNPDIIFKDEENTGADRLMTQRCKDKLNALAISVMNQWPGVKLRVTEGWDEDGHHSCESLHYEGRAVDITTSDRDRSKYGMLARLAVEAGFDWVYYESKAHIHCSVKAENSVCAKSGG
modifications: 5 K PEG maleimide on thiol of Cys113, Cys169
Take B4: the “IC50 in C3H10T1/2 assay” value in assay [2] was 0.6 µg/mL.

B5: mutant 45 (Shh C1II/A169C + G146C), 5 K PEG (ligand)
chain: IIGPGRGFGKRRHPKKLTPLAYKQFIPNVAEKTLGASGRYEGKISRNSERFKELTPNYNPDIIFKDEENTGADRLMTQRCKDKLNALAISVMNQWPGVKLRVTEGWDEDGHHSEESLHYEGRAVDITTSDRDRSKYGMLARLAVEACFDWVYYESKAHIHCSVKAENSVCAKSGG
modifications: 5 K PEG maleimide on thiol of Cys146, Cys169
B5: the “IC50 in C3H10T1/2 assay” value in assay [2] amounted to 0.5 µg/mL.

B6: mutant 25 (Shh C1II/A169C + S133C), 5 K PEG (ligand)
chain: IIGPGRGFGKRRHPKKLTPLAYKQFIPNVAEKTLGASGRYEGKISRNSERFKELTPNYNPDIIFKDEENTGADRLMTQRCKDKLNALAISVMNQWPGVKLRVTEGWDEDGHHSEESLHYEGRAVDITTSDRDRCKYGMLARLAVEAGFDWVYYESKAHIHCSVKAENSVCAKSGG
modifications: 5 K PEG maleimide on thiol of Cys133, Cys169
In the case of B6, the “Potency (IC50) in C3H10T1/2 assay” value in assay [1] turned out to be 2 µg/mL.

B7: mutant 44 (Shh C1II/A169C + E113C), unmodified (ligand)
chain: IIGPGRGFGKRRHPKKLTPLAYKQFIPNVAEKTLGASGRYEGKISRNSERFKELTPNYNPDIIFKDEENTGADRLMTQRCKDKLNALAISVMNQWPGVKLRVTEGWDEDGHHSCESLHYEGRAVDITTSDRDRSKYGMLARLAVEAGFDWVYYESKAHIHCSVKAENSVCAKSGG
Consider B7, for which the “IC50 in C3H10T1/2 assay” value in assay [2] was 1 µg/mL.

B8: mutant 25 (Shh C1II/A169C + S133C), 20 K PEG (ligand)
chain: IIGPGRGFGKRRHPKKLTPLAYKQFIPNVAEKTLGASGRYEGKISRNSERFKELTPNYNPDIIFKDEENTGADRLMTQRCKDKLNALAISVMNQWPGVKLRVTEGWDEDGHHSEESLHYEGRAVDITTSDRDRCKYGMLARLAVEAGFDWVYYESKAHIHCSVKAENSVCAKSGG
modifications: 20 K PEG maleimide on thiol of Cys133, Cys169
Take B8: the “Potency (IC50) in C3H10T1/2 assay” value in assay [1] came out at 2 µg/mL.
